# Results: patent US20180155451A1 (published 2018)
# T1: FcγRIIb extracellular domain with C-terminal His tag (human, UniProt P31994 43-217)
# T1 construct: extracellular domain; expressed in FreeStyle293 cells; analyte in the Biacore assay; also called FcgRIIb; 2b; not shown: His tag at the C terminus
# T1 sequence (looked up): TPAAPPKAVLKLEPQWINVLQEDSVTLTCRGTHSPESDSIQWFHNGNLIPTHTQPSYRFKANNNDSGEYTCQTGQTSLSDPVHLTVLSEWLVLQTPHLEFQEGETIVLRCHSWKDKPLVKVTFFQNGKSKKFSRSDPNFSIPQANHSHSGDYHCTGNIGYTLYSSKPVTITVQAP
# Target: T1, FcγRIIb extracellular domain with …
# Experiment: SPR (Biacore), captured antibody, FcγRIIb analyte; binding relative to GpH7-A5/GpH7-B3/GpL16-k0 = 100
row,He/Con_2b,Binder
1,111 % of control,"GpH7-A5/GpH7-B3 variant K334_04F/GpL16-k0 (antibody, human IgG1, kappa, heterodimerized; mutation in the B3 H chain only; also called He Ab K334_04F) heavy 1: not shown heavy 2: not shown light: DIVMTQSPLSLPVTPGEPASISCQASESLVHSNRNTYLHWYLQKPGQSPQLLIYKVSNRFSGVPDRFSGSGSGTDFTLKISRVEAEDVGVYYCSQNTHVPPTFGQGTKVEIERTVAAPSVFIFPPSDEQLKSGTASVVCLLNNFYPREAKVQWKVDNALQSGNSQESVTEQDSKDSTYSLSSTLTLSKADYEKHKVYACEVTHQGLSSPVTKSFNRGEC"
2,119 % of control,"GpH7-A5/GpH7-B3 variant K334_07I/GpL16-k0 (antibody, human IgG1, kappa, heterodimerized; mutation in the B3 H chain only; also called He Ab K334_07I) heavy 1: not shown heavy 2: not shown light: DIVMTQSPLSLPVTPGEPASISCQASESLVHSNRNTYLHWYLQKPGQSPQLLIYKVSNRFSGVPDRFSGSGSGTDFTLKISRVEAEDVGVYYCSQNTHVPPTFGQGTKVEIERTVAAPSVFIFPPSDEQLKSGTASVVCLLNNFYPREAKVQWKVDNALQSGNSQESVTEQDSKDSTYSLSSTLTLSKADYEKHKVYACEVTHQGLSSPVTKSFNRGEC"
3,159 % of control,"GpH7-A5/GpH7-B3 variant K326_15Y/GpL16-k0 (antibody, human IgG1, kappa, heterodimerized; mutation in the B3 H chain only; also called He Ab K326_15Y) heavy 1: not shown heavy 2: not shown light: DIVMTQSPLSLPVTPGEPASISCQASESLVHSNRNTYLHWYLQKPGQSPQLLIYKVSNRFSGVPDRFSGSGSGTDFTLKISRVEAEDVGVYYCSQNTHVPPTFGQGTKVEIERTVAAPSVFIFPPSDEQLKSGTASVVCLLNNFYPREAKVQWKVDNALQSGNSQESVTEQDSKDSTYSLSSTLTLSKADYEKHKVYACEVTHQGLSSPVTKSFNRGEC"
4,125 % of control,"GpH7-A5/GpH7-B3 variant K334_03V/GpL16-k0 (antibody, human IgG1, kappa, heterodimerized; mutation in the B3 H chain only; also called He Ab K334_03V) heavy 1: not shown heavy 2: not shown light: DIVMTQSPLSLPVTPGEPASISCQASESLVHSNRNTYLHWYLQKPGQSPQLLIYKVSNRFSGVPDRFSGSGSGTDFTLKISRVEAEDVGVYYCSQNTHVPPTFGQGTKVEIERTVAAPSVFIFPPSDEQLKSGTASVVCLLNNFYPREAKVQWKVDNALQSGNSQESVTEQDSKDSTYSLSSTLTLSKADYEKHKVYACEVTHQGLSSPVTKSFNRGEC"
5,150 % of control,"GpH7-A5/GpH7-B3 variant K326_14T/GpL16-k0 (antibody, human IgG1, kappa, heterodimerized; mutation in the B3 H chain only; also called He Ab K326_14T) heavy 1: not shown heavy 2: not shown light: DIVMTQSPLSLPVTPGEPASISCQASESLVHSNRNTYLHWYLQKPGQSPQLLIYKVSNRFSGVPDRFSGSGSGTDFTLKISRVEAEDVGVYYCSQNTHVPPTFGQGTKVEIERTVAAPSVFIFPPSDEQLKSGTASVVCLLNNFYPREAKVQWKVDNALQSGNSQESVTEQDSKDSTYSLSSTLTLSKADYEKHKVYACEVTHQGLSSPVTKSFNRGEC"
6,148 % of control,"GpH7-A5/GpH7-B3 variant K326_20W/GpL16-k0 (antibody, human IgG1, kappa, heterodimerized; mutation in the B3 H chain only; also called He Ab K326_20W) heavy 1: not shown heavy 2: not shown light: DIVMTQSPLSLPVTPGEPASISCQASESLVHSNRNTYLHWYLQKPGQSPQLLIYKVSNRFSGVPDRFSGSGSGTDFTLKISRVEAEDVGVYYCSQNTHVPPTFGQGTKVEIERTVAAPSVFIFPPSDEQLKSGTASVVCLLNNFYPREAKVQWKVDNALQSGNSQESVTEQDSKDSTYSLSSTLTLSKADYEKHKVYACEVTHQGLSSPVTKSFNRGEC"

# Second part, the binder before the results:
row,Binder,He/Con_2b
1,"GpH7-A5/GpH7-B3 variant I332_14T/GpL16-k0 (antibody, human IgG1, kappa, heterodimerized; mutation in the B3 H chain only; label printed T332_14T, read as I332_14T; also called He Ab I332_14T) heavy 1: not shown heavy 2: not shown light: DIVMTQSPLSLPVTPGEPASISCQASESLVHSNRNTYLHWYLQKPGQSPQLLIYKVSNRFSGVPDRFSGSGSGTDFTLKISRVEAEDVGVYYCSQNTHVPPTFGQGTKVEIERTVAAPSVFIFPPSDEQLKSGTASVVCLLNNFYPREAKVQWKVDNALQSGNSQESVTEQDSKDSTYSLSSTLTLSKADYEKHKVYACEVTHQGLSSPVTKSFNRGEC",106 % of control
2,"GpH7-A5/GpH7-B3 variant I336_08L/GpL16-k0 (antibody, human IgG1, kappa, heterodimerized; mutation in the B3 H chain only; also called He Ab I336_08L) heavy 1: not shown heavy 2: not shown light: DIVMTQSPLSLPVTPGEPASISCQASESLVHSNRNTYLHWYLQKPGQSPQLLIYKVSNRFSGVPDRFSGSGSGTDFTLKISRVEAEDVGVYYCSQNTHVPPTFGQGTKVEIERTVAAPSVFIFPPSDEQLKSGTASVVCLLNNFYPREAKVQWKVDNALQSGNSQESVTEQDSKDSTYSLSSTLTLSKADYEKHKVYACEVTHQGLSSPVTKSFNRGEC",107 % of control
3,"GpH7-A5/GpH7-B3 variant K326_03V/GpL16-k0 (antibody, human IgG1, kappa, heterodimerized; mutation in the B3 H chain only; also called He Ab K326_03V) heavy 1: not shown heavy 2: not shown light: DIVMTQSPLSLPVTPGEPASISCQASESLVHSNRNTYLHWYLQKPGQSPQLLIYKVSNRFSGVPDRFSGSGSGTDFTLKISRVEAEDVGVYYCSQNTHVPPTFGQGTKVEIERTVAAPSVFIFPPSDEQLKSGTASVVCLLNNFYPREAKVQWKVDNALQSGNSQESVTEQDSKDSTYSLSSTLTLSKADYEKHKVYACEVTHQGLSSPVTKSFNRGEC",175 % of control
4,"GpH7-A5/GpH7-B3 variant K326_06M/GpL16-k0 (antibody, human IgG1, kappa, heterodimerized; mutation in the B3 H chain only; also called He Ab K326_06M) heavy 1: not shown heavy 2: not shown light: DIVMTQSPLSLPVTPGEPASISCQASESLVHSNRNTYLHWYLQKPGQSPQLLIYKVSNRFSGVPDRFSGSGSGTDFTLKISRVEAEDVGVYYCSQNTHVPPTFGQGTKVEIERTVAAPSVFIFPPSDEQLKSGTASVVCLLNNFYPREAKVQWKVDNALQSGNSQESVTEQDSKDSTYSLSSTLTLSKADYEKHKVYACEVTHQGLSSPVTKSFNRGEC",165 % of control
5,"GpH7-A5/GpH7-B3 variant K326_08L/GpL16-k0 (antibody, human IgG1, kappa, heterodimerized; mutation in the B3 H chain only; also called He Ab K326_08L) heavy 1: not shown heavy 2: not shown light: DIVMTQSPLSLPVTPGEPASISCQASESLVHSNRNTYLHWYLQKPGQSPQLLIYKVSNRFSGVPDRFSGSGSGTDFTLKISRVEAEDVGVYYCSQNTHVPPTFGQGTKVEIERTVAAPSVFIFPPSDEQLKSGTASVVCLLNNFYPREAKVQWKVDNALQSGNSQESVTEQDSKDSTYSLSSTLTLSKADYEKHKVYACEVTHQGLSSPVTKSFNRGEC",177 % of control
